Test results published in patent US20190336574A1 (TRUSTEES OF PRINCETON UNIVERSITY, published 2019).
Positions count from the first letter of the chain named.

Assays:
Test in all cases: co-IP (anti-Myc) from HEK293T lysates, western blot
[1] = target: T1, HA-SND1 Δ39-43, full-length human (human, UniProt Q7KZF4 1-910)
T1 construct: also called 439-43
T1 sequence: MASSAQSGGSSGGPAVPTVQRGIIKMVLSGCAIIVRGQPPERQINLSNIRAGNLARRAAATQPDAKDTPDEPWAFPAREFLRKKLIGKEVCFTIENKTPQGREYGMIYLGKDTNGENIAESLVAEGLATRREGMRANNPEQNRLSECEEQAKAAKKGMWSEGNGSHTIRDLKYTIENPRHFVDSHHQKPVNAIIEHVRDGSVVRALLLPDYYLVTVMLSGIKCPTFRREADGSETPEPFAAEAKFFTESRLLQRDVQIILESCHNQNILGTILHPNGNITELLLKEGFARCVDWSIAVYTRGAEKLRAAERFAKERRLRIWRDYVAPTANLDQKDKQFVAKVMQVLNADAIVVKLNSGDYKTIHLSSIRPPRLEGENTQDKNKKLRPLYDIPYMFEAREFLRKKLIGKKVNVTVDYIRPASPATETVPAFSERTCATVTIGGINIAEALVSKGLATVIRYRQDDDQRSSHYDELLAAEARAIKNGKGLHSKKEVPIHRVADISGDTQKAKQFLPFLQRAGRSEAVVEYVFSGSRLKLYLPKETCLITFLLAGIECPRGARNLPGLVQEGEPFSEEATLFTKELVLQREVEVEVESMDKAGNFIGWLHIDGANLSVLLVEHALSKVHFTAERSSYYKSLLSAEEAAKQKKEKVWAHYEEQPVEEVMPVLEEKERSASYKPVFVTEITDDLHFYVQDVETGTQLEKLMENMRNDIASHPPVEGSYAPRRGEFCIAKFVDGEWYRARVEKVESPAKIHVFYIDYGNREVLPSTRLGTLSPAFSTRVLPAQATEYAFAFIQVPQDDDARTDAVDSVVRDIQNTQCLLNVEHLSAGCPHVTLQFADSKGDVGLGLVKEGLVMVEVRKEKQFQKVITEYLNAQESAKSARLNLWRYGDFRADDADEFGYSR

[2] = target: T2, HA-SND1 F250A, full-length human (human, UniProt Q7KZF4 1-910)
T2 construct: Full-length, HA-tagged
T2 sequence: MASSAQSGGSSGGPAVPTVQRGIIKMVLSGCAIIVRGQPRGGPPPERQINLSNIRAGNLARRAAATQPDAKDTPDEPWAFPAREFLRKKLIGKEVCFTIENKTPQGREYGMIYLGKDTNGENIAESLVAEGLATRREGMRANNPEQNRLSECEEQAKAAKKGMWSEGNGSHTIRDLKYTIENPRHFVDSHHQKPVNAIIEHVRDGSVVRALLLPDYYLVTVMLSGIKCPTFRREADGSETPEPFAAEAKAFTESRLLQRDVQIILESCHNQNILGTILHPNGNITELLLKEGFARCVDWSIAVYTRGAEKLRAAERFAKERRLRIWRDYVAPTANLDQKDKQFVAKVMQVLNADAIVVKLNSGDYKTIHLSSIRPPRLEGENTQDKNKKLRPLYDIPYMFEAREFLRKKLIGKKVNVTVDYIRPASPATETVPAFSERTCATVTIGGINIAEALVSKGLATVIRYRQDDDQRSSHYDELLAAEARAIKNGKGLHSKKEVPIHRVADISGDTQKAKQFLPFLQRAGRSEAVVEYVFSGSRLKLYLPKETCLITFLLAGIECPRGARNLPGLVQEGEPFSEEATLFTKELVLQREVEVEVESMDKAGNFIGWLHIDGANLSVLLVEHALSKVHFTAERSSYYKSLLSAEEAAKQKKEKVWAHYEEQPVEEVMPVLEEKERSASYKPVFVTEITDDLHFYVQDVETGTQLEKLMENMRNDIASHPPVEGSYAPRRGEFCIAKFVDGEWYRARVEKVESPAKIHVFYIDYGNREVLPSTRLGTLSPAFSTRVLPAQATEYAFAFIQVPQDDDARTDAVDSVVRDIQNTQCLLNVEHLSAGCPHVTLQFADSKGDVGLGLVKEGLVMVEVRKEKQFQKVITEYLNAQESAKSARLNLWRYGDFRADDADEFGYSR

[3] = target: T3, HA-SND1 R255E, full-length human (human, UniProt Q7KZF4 1-910)
T3 construct: Full-length, HA-tagged
T3 sequence: T2 sequence with A250F, R255E

Measured: binding result

B1: Myc-MTDH, full-length human, wild type (other)
chain: MAARSWQDELAQQAEEGSARLREMLSVGLGFLRTELGLDLGLEPKRYPGWVILVGTGALGLLLLFLLGYGWAAACAGSRKKRRSPPRKREEAAAVPAAAPDDLALLKNLRSEEQKKKNRKKLSEKPKPNGRTVEVAEGEAVRTPQSVTAKQPPEIDKKNEKSKKNKKKSKSDAKAVQNSSRHDGKEVDEGAWETKISHREKRQQRKRDKVLTDSGSLDSTIPGIENTITVTTEQLTTASFPVGSKKNKGDSHLNVQVSNFKSGKGDSTLQVSSGLNENLTVNGGGWNEKSVKLSSQISAGEEKWNSVSPASAGKRKAEPSAWSQDTGDANTNGKDWGRSWSDRSIFSGIGSTAEPVSQSTTSDYQWDVSRNQPYIDDEWSGLNGLSSADPNSDWNAPAEEWGNWVDEERASLLKSQEPIPDDQKVSDDDKEKGEGALPTGKSKKKKKKKKKQGEDNSTAQDTEELEKEIREDLPVNTSKTRPKQEKAFSLKTISTSDPAEVLVKNSQPIKTLPPATSTEPSVILSKSDSDKSSSQVPPILQETDKSKSNTKQNSVPPSQTKSETSWESPKQIKKKKKARRET
notes: Full-length, Myc-tagged; Expressed in HEK293T cells, tested in lysate; also called Myc-tagged MTDH; WT Myc-MTDH
no binding: all assays above
